Assay [1] has as its target PtAUREO1a bZIP-A′α-LOV-Jα functional module (residues D145-D378) (Phaeodactylum tricornutum). As to the kind of experiment: SAXS.
For assay [2] the target is unchanged. As to the kind of experiment: SEC. For orientation: In gel filtration, larger molecules generally elute earlier.
For assay [3] the target is unchanged. Nature of the assay: SEC. The source holds these as a separate data set.
The target is the same in assay [4]. As to the kind of experiment: MST.
The target of assay [5] is PtAUREO1c (aureochrome 1c from Phaeodactylum tricornutum), full length (Phaeodactylum tricornutum). Nature of the assay: MST.
Assay [6] addresses PtAUREO1a bZIP-A′α-LOV-Jα functional module (residues D145-D378) (Phaeodactylum tricornutum). As to the kind of experiment: MST. This is another data set of the same source.

Our source for the stoichiometry N and Kd values is paper PMC4937327.

pKd: −log10 of the molar value. Like-named read-outs stand apart in the source and are kept apart here.

With “PtAUREO1a bZIP-A′α-LOV-Jα functional module (residues D145-D378) (domain or fragment)”, the stoichiometry N in assay [1], in assay [2] and in assay [3] was 2 each time. The pKd in assay [4] was 6.55 to 6.62; in assay [5] it was 6.35.

For “dsDNA/bZIP-A′α-LOV-Jα complex (PtAUREO1a bZIP-A′α-LOV-Jα dimer bound to dsDNA)”, the negative-log Kd (pKd) is 5.59 in assay [6] and 6.10 in assay [4].

Turning to “PtAUREO1a (aureochrome 1a from Phaeodactylum tricornutum), full length (natural protein)”, in assay [5], the pKd is 6.62.

A word on the stoichiometry N: it is the number of molecules, sites or subunits per partner or assembly. For orientation: pKd means the Kd on a negative log10 scale, so that one unit is a factor of ten. A high value points to a low Kd.
